According to patent publication CN114634568A (SHENZHEN PHENPENG BIOTHERAPY CO LTD, dated 2022):

Columns and labels:
[1] = molecular target: T1, hu(人)BCMA ECD His, ACRO, BCA-H522y (human, UniProt Q02223 1-54); assay: ELISA, hu BCMA ECD His coated at 2 μg/mL
T1 construct: extracellular domain; Bought reagent; also called hu BCMA ECD His; BCMA抗原; not shown: His tag
T1 sequence (looked up): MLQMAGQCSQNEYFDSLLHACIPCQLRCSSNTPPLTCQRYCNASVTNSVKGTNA

[2] = molecular target: T2, 人BCMA全长 (K562-BCMA细胞株和CHO-BCMA细胞株表面表达) (human, UniProt Q02223 1-184); assay: flow cytometry on K562-BCMA and CHO-BCMA cells, APC anti-human IgG Fc
T2 construct: whole, on cells; also called BCMA表达阳性的细胞
T2 sequence (looked up): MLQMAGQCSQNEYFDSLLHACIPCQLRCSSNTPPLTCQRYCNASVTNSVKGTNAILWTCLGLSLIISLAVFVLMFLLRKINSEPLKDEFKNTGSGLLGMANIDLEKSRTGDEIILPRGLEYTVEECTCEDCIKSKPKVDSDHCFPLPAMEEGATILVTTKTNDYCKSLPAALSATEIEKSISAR

h BCMA ECD mFc = molecular target: T3, h BCMA ECD mFc (human, UniProt Q02223 1-54); assay: BLI (Fortebio), h BCMA ECD mFc 3 ug/mL loaded on AMC biosensor, antibody in solution
T3 construct: extracellular domain; also called hBCMA-mFc; not shown: mouse Fc (mFc)
T3 sequence (looked up): T1 sequence (looked up)

binding result [1]: binds
binding result [2]: binds
binding result (h BCMA ECD mFc): binds
B1: 鼠源BCMA抗体 mVH-mVL (CN201911298620.7专利中5E2 BCMA抗体) (antibody, V domains shown)
VH: EVQLQQSGPELIKPGASVKMSCKASGYTFTSYVVHWVKQKPGQGLEWIGYIIPYNDDTKYNEKFKGKATLTSDKSSSTAYMELSSLTSEDSAVYYCARWDYDDGYFDYWGQGTTLTVSS
VL: DVVMTQTPLSLPVTLGDQASISCRSSQSLLHSNGNTYLHWYLQKPGQSPKLLIYKVSNRFSGVPDRFSGSGSGTDFTLKISRVEAEDLGVYFCSQITHIPFTFGSGTKLEIKR
notes: In flow cytometry the detection reagent was APC anti-human IgG Fc
